B1: TPR t1 (parent)
chain: GACCAAUCUGCCCUCAGAGCUCGAGAACAUCUUCGGAUGCAGAGGAGGCAGGCUUCGGUGGCGCGAUAGCGCCAACGUCCUCAACCUCCAAUGCAUCCCACCACAUGAUGAUGCCUGAAGAGCCUUGGUUUUUUG

Variants of: B1
Assay: polymerase ribozyme fitness, log enrichment relative to wild type (log ratio); higher = more active; in vitro selection for triplet polymerase activity
Procedure, shortened: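 Fitness compares each genotype's enrichment to that of the wild type on a logarithmic scale, averaging replicates with inverse-variance weights. The logarithm is base 2. Enrichment came from Illumina sequencing of input and output libraries after one triplicate round of in vitro selection, which included frozen incubation at −7 °C, of PCR-built, transcribed mutant libraries of each subunit of a heterodimeric triplet polymerase ribozyme. Only genotypes with ≥10 input reads and ≥1 read per output were kept.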

Variant	polymerase ribozyme fitness (log ratio)
C12U A29U G52C C73U	-1.91
C13U A41G A46G C53A U78C	-0.474
C13U A43G G60A	-1.39
C13A G47C	-3.14
C12U C49A U96C	-0.405
C12U C13U A43G G61A	-2.1
C13G C56A G63A	-3.78
C13U A18U C31U C64G A103C G110A	-5.64
C13A U21C G57A U59G A75U C86U C97U	-5.71
C13A A95C G120A	-0.521
C13G A46U	-2.39
C12U C34A	-2.28
C12U G25A G93C G120C	-7.38
C13A G69U C72A G113A	-1.88
C13A C53G U54A G117C	-4.98
C12U C40U A90G	0.0487
C12U G39A C72G C85U	-1.34
C13G U59C	0.688
C13A C72U A83C A84G U112C	-1.46
C13A G61C A90C	-5.48
C13G G44U C82A	-3.4
C12G U92C G120U	1.41
C13A G63U U112C	-1.77
C13G C62U U81A C94U C101U	-3.12

Variant	polymerase ribozyme fitness (log ratio)
C13G C53G U59C U133G	-1.68
C12G U21C A29U C123U U131A	-1.87
C12U A18C G71U U131C	-1.9
C13G A100C	-3.31
C13A G117A	-4.07
C12U C34A C53U C72U	-2.62
C13A A29G	-3.22
C13A C56U U59A	-2.77
C12U U21A A29G G63A	-2.72
C13A G63A G77U U106A C114A	-6.33
C12U A74U C80A C97U A121G U133A	-0.836
C12U G36U	-0.34
C13A G61U U92C C114A	-3.9
C13G G39U C115U	-2.63
C12U G39C G127C U133A	-1.79
C13G G57C C73A G110A	-2.44
C13A G71A	-0.843
C12U C124G	2.23
C12U G47A C102A	-2.63
C13A U21A U54C C56G C86A U106G C124U	-2.59
C12U C76U	-0.504
C13U A108U	-4.78
C13G U21A G52C A91C G120C	-3.21
C13U A37C C53G G128C	-1.48

Variant	polymerase ribozyme fitness (log ratio)
C12U C53G C97A	-5.8
C12U C13A G60C A121U	1
C12U G120U	2.06
C12U G17C A29G C82A A90U A95C U106C G120A A121U	-6.75
C12U U54A	0.369
C12U G60C U112G	0.137
C13A C114U	-2.86
C12U G63U	-0.968
C13A A43U G60C C88A	-4.2
C13U A27U C72A U130A	-2.6
C13A A18G C98G G120C	-1.26
C13A U78A	-2.18
C13G C20U	-2.34
C13U	0.225
C13G	-1.53
C13A	-1.61
C13G G39U U54A	-2.59
C12U C72U C104A U125G	-1.99
C13A C49U C53G U112C	-2.14
C12U C34G G127A	-6.04
C13A G93C C123G	-0.906
C13G G35C C64U A90G G93A C97A C124A	-5.83
C12U U32C U81A U112A	0.32
C13A C53A	-0.605

Variant	polymerase ribozyme fitness (log ratio)
C13G G42U C49U G61U U130A	-4.93
C12U A100U	-0.242
C12U G36C G117U	-0.382
C12U G39A C56A	-0.34
C12U C22A	-4.93
C12U A41U C56A U87A C114U	-3.21
C13A A18G C73A	-4.96
C13U A27U G42U C64G A100C G120C C123G	-7.95
C13G G17A C115U	-1.42
C12U C15U U38C A43C C123A	-1.45
C13G C22U G63U C79U G122A	-7.09
C12U A50U	-1.64
C13G G52U	-3.2
C13U A26G G63C U81A G117C	-6.91
C13U A46U G110A A111C A119C	-5.5
C12G U33G	-4.76
C12U A75G G128A	-1.43
C13G G19C G61U C88U	-4.01
C12U U109A	-3.34
C13A C72G C82A C94U G110A	-3.05
C12U C86U A103U A111U	-4.99
C13G G47C	-3.71
C13G G48C G63U A105C	-5.9
C12U G47U C73A C86G G122A	-0.298

Variant	polymerase ribozyme fitness (log ratio)
C12U G42U G77U G117U U126C	-1.93
C13A A43C C101A A111C	-6.5
C12U G47U C85U U129G	-3.07
C13G C82U U131A	-2.89
C13A A41G G69A	-5.37
C13A A18U C53U	-3.95
C13A G47U G63U	-4.2
C12U U54A A91C C115U	-0.811
C13A A84G	-2.42
C13G C62U	-1.43
C12U C64U C98U	-0.396
C12U C20G A43C G48A C62U	-6.08
C13A G122A	-2.07
C13A C70G C98U G120A	-2.39
C13G A83U	-2.24
C13A C20U U38A A91U C124G	-1.87
C13A C85G C123U	-0.463
C12U C62G G122U	-0.331
C12U A66G A74U	-1.17
C12U A108G U130A	-3.19
C13U A27U G36A G61A C79A	-5.13
C12U G51U C73A U92A G113U U116G	-7.04
C13A U92C	-3.57
C12U C15G G71C G127C	-4.84

Variant	polymerase ribozyme fitness (log ratio)
C13G G35U G61U C102U	-6.42
C12U G61C	-1.48
C12U C20U U96C	-0.583
C13G G63C C85G U112A G120C	-1.45
C13G C70A	-2.2
C12U C28G	-1.98
C13G C62A C124A	0.6
C13A U81A C88U G110A A121C	-2.71
C13A C15G A37U A103C	-6.73
C12U C13U	-0.904
C12U A29C U131G	-2.88
C13U A43C G71A C82A C98G C102A A105U G117C	-6.77
C13A A18C	-4.69
C12U G51A U78C	-2.26
C13A A26U A46U U81G C114U	-6.71
C13G G36U G60A G110U	-4.24
C13G G44A G48C U55G C79U C124G	-0.404
C13A G36C G69C	-2.94
C12U U112G	0.735
C12U G25U	-6.45
C12U A27G A66C C73A U78C C101A	-4.25
C12U C31U G77U U87C C123U	-3.57
C12U G122A	-0.00508
C13G G110A	-1.87

Variant	polymerase ribozyme fitness (log ratio)
C13G G17C	-4.94
C12G U96G G117U	-2.18
C13A A50G G71A	-2.13
C12U G48U A111C	-0.108
C12U C72U U130G	-0.295
C13A A43C A83G C102A G110A U129C	-6.67
C12U C13G C70G	-2.49
C13G G61A C94G U116A	-6.69
C12U A83C	0.0344
C13A G63U	-3.09
C13A G63C	-2.37
C12U G48A G51U C56A	-2.84
C12U C13U C97A C123U C124A	-2.92
C12U G39U G63U G77C	-3.85
C13G A43U C76U C123G	-0.345
C12G U55C C88A C104G G113A C123G C124A	-6.5
C13U A16C G48C U59G G60U A100C A121C	-0.128
C13A C40A G93A A118U U129C	-3.28
C13A G60U G69U	-4.92
C13U A100U C101U C104U A121C	1.33
C13A G77U U106A C114A	-4.55
C13G G113A A118C	-4.34
C13A C88A	-2.19
